Laboratory results taken from FireProtDB (doi:10.1021/bi991757+).

Details: Enterobacteria phage 434, pH 6, Urea, CD, KH2PO4 25 mM, KCl 100 mM, reversible: yes, whole UniProt chain shown

B1: Regulatory protein cro wild type, P03036 (protein)
chain: MQTLSERLKKRRIALKMTQTELATKAGVKQQSIQLIEAGVTKRPRFLFEIAMALNCDPVWLQYGTKRGKAA
Question: Which denaturant m value (5 °C) does the source give for B1 here?
Answer: The denaturant m value was 0.99 kcal/mol/M.

Question: And the “denaturant midpoint (higher = more stable)” value (from here on “denaturant midpoint”) (5 °C)?
Answer: Its value is 3.32 M.

Question: And the unfolding free energy (5 °C)?
Answer: Its unfolding free energy is 3.28 kcal/mol.

Question: What about the denaturant m value (15 °C) of the same protein?
Answer: The denaturant m value was 0.91 kcal/mol/M.

Question: What about the “denaturant midpoint” value (15 °C) of the same protein?
Answer: Its value is 3.56 M.

Question: What about the unfolding free energy (15 °C) of the same protein?
Answer: The unfolding free energy was 3.23 kcal/mol.

Question: What about the denaturant m value (20 °C) of the same protein?
Answer: The denaturant m value was 1.01 kcal/mol/M.

Question: And the “denaturant midpoint” value (20 °C)?
Answer: Its value is 3.42 M.

Question: What about the unfolding free energy (20 °C) of the same protein?
Answer: The unfolding free energy was 3.44 kcal/mol.

Question: And the denaturant m value (25 °C)?
Answer: Its denaturant m value is 1 kcal/mol/M.

Question: What about the “denaturant midpoint” value (25 °C) of the same protein?
Answer: Its value is 3.07 M.

Question: And the unfolding free energy (25 °C)?
Answer: The unfolding free energy was 3.05 kcal/mol.
